B1: VHH93B2 (VHH)
VHH: QVQLVESGGGLVQPGGSLRLSCAASGFTFEPYDMSWFRQAPGKGPEWVSAIDKGGGAGATYYADSVKGRFTISRDNAKKTLYLQMKSLKPEDTAVYYCAITAGPYSDSTPRVAYRGEGTQVTVSS
B2: VHH219B2 (VHH)
VHH: QVQLEESGGGLVQAGGSLRLSCAASGRTFSSYVVGWFRQAPGKEREFVGRISWSGARTYYADSVEGRFTISRDNAKNTVYLQMNSLKPEDTAVYYCAADLKWEVLLSEHYEYWGQGTQVTVSS
B3: DGL607 (bispecific antibody, V domains shown)
V domain 1: QVQLVESGGGLMQAGGSLRLSCALSRGIFSAYAMGWFRQVQGKEREFVSGISRSGSTTDYVDTAKGRFTISRDNARDTVYLQMNSLKPEDTAVYYCAAVTGTFPSSTYHNANAYHHWGQGTQVTVEP
V domain 2: QVQLVESGGGLVQAGGSLKLSCAASGGTFSSYAMGWFRQAPGKEREFVAVIMRSGDTTAYVDSVKGRFTVSRDNAKNTVYLQMNSLKPEDAAVYFCAAGRPVTRTYYHTYTYPHDYDYWGQGTQVTVEP
notes: 86B1 x 278B2
B4: DGL551 (bispecific antibody, V domains shown)
V domain 1: QVQLVESGGGLVQAGGSLRLSCAASGRTFGTYAMGWFRQAPGKERDFVARISNSGAFTHYADSVKGRFTISRDNAKNTVYLHMNSLENGDTAAYYCVATRGTNSAYYTRSTMYEYWGQGTQVTVEP
V domain 2: QVQLVESGGGLVQAGGSLRLSCAASGRTFSRYRMGWFRQAPGKEREFVAAITKSGATTYDADSVKGRFTISRDNAKNTLYLQMNSLKPEDTAVYYCAASYHSNWWPKNADEYAYWGQGTQVTVEP
notes: 195B1 x 185B2
B5: DGL487 (bispecific antibody, V domains shown)
V domain 1: QVQLVESGGGLVQAGGSLRLSCAASARIFNSYAVAWFRQTPGKEREFVASISWSGGSTNYADSVKGRFTISRDNAKNTVFLQMNSLKPADTAVYYCAADRNYYPSVLGKYTYWGQGTQVTVEP
V domain 2: QVQLQESGPGLVKPSQTLSLTCTVSGGSITTNYYYWSWIRQPPGKGLEWMGAIAYSGSTYYSPSLKSRTSISRDTSKNQFTLQLSSVTPEDTAVYYCASGINFYSNYPTLNEYDYWGQGTQVTVEP
notes: 67B1 x 190B2
B6: DGL412 (bispecific antibody, human IgG1, kappa)
heavy 1: not shown
heavy 2: QVQLVESGGGLVRPGGSLRLSCAASGFTFSSNGMHWFRQAPGKGLEWVSSIGSGGTSIYYADSVKGRFTISRDNAKNTLYLQMNSLKSDDTAVYYCSKEVTGATRGQGTQVTVEPKSSDKTHTCPPCPAPEAAGAPSVFLFPPKPKDTLMISRTPEVTCVVVDVSHEDPEVKFNWYVDGVEVHNAKTKPREEQYNSTYRVVSVLTVLHQDWLNGKEYKCKVSNKALPAPIEKTISKAKGQPREPQVCTLPPSRDELTKNQVSLSCAVKGFYPSDIAVEWESNGQPENNYKTTPPVLDSDGSFFLVSKLTVDKSRWQQGNVFSCSVMHEALHNRFTQKSLSLSPG
light: DIQMTQSPSSLSASVGDRVTITCRASQGIGNYLAWFQQRPGKAPKSLIYAASSLQSGVPSKFSGSGSGTDFTLTISSLQPADFAIYYCQQYNIYPYTFGPGTRLEIKRTVAAPSVFIFPPSDEQLKSGTASVVCLLNNFYPREAKVQWKVDNALQSGNSQESVTEQDSKDSTYSLSSTLTLSKADYEKHKVYACEVTHQGLSSPVTKSFNRGEC
notes: 85801_05G01A x 13B2
B7: DGL444 (bispecific antibody, human IgG1, lambda)
heavy 1: not shown
heavy 2: QVQLVQSGAEVKKPGASVKVSCKASGYTFIGYYIHWVRQAPGQGLEWMGWINPHSGGTNYAQKFQGRVTMTRDTSISTAYMELSRLRSDDTAIYYCTKEANNWGYAFDIWGQGTMVTVSSASTKGPSVFPLAPSSKSTSGGTAALGCLVKDYFPEPVTVSWNSGALTSGVHTFPAVLQSSGLYSLSSVVTVPSSSLGTQTYICNVNHKPSNTKVDKKVEPKSCDKTHTCPPCPAPEAAGAPSVFLFPPKPKDTLMISRTPEVTCVVVDVSHEDPEVKFNWYVDGVEVHNAKTKPREEQYNSTYRVVSVLTVLHQDWLNGKEYKCKVSNKALPAPIEKTISKAKGQPREPQVCTLPPSRDELTKNQVSLSCAVKGFYPSDIAVEWESNGQPENNYKTTPPVLDSDGSFFLVSKLTVDKSRWQQGNVFSCSVMHEALHNRFTQKSLSLSPG
light: not shown
notes: 195B1 x 85802_08F20A
B8: DGL426 (bispecific antibody, human IgG1, lambda)
heavy 1: not shown
heavy 2: QVQLVQSGAEVKKPGASVKVSCKASGYTFIGYYIHWVRQAPGQGLEWMGWINPHSGGTNYAQKFQGRVTMTRDTSISTAYMELSRLRSDDTAIYYCTKEANNWGYAFDIWGQGTMVTVSSASTKGPSVFPLAPSSKSTSGGTAALGCLVKDYFPEPVTVSWNSGALTSGVHTFPAVLQSSGLYSLSSVVTVPSSSLGTQTYICNVNHKPSNTKVDKKVEPKSCDKTHTCPPCPAPEAAGAPSVFLFPPKPKDTLMISRTPEVTCVVVDVSHEDPEVKFNWYVDGVEVHNAKTKPREEQYNSTYRVVSVLTVLHQDWLNGKEYKCKVSNKALPAPIEKTISKAKGQPREPQVCTLPPSRDELTKNQVSLSCAVKGFYPSDIAVEWESNGQPENNYKTTPPVLDSDGSFFLVSKLTVDKSRWQQGNVFSCSVMHEALHNRFTQKSLSLSPG
light: not shown
B9: DGL586 (bispecific antibody, V domains shown)
V domain 1: QVQLVESGGGLVQAGGSLRLSCAASGRTFSSYVMGWFRQAPGQEREFVAAIMRNGIMTYYADSVKGRFTISRDNAKNTVYLQMNTLKPDDTAVYYCAAASRVGVSISQSSSYTSWGQGTQVTVEP
V domain 2: QVQLVESGGGLVQPGGSLRLSCAASGFTFSNYAMSWVRQAPGKGLEWVSAINSDGTSTSYADSVKGQFTISRDNAKNTLYLQMNSLKPEDTAVYYCTKWEGDTDSDYKFKDYWGQGTQVTVEP
notes: 258B1 x 19B2

Assays:
[1] = target: T1, human IL-12Rβ2-huFc-his (R&D system), biotinylated (human, UniProt Q99665 24-622, limits assumed, biotinylated); test: ELISA, periplasmic extract
T1 construct: bought; captured on Neutravidin in the ELISA; also called Bio-huIL-12Rβ2-huFc-His
T1 sequence (looked up): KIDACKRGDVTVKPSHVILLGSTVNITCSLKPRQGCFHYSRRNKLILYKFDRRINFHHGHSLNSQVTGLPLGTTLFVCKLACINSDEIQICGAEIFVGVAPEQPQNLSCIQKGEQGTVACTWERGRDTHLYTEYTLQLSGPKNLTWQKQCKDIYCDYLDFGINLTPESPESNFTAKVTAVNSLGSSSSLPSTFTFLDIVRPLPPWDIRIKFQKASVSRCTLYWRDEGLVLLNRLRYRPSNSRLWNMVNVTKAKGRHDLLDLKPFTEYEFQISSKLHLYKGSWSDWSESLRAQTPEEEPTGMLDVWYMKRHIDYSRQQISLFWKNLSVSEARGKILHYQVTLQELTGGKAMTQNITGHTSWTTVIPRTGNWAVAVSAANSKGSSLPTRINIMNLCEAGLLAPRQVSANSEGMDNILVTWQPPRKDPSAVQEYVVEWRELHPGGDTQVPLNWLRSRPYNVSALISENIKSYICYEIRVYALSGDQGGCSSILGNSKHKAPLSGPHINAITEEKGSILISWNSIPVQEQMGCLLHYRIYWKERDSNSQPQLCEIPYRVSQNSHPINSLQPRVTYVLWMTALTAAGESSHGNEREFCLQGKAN

[2] = target: T2, cyno IL-12RB2 with C-terminal HA tag, transiently expressed on HEK-293T cells (cyno, UniProt A0A2K5VNI7 24-860); test: FACS, periplasmic extract, HEK-293T
T2 construct: whole, on cells; also called cyno IL-12Rβ2
T2 sequence: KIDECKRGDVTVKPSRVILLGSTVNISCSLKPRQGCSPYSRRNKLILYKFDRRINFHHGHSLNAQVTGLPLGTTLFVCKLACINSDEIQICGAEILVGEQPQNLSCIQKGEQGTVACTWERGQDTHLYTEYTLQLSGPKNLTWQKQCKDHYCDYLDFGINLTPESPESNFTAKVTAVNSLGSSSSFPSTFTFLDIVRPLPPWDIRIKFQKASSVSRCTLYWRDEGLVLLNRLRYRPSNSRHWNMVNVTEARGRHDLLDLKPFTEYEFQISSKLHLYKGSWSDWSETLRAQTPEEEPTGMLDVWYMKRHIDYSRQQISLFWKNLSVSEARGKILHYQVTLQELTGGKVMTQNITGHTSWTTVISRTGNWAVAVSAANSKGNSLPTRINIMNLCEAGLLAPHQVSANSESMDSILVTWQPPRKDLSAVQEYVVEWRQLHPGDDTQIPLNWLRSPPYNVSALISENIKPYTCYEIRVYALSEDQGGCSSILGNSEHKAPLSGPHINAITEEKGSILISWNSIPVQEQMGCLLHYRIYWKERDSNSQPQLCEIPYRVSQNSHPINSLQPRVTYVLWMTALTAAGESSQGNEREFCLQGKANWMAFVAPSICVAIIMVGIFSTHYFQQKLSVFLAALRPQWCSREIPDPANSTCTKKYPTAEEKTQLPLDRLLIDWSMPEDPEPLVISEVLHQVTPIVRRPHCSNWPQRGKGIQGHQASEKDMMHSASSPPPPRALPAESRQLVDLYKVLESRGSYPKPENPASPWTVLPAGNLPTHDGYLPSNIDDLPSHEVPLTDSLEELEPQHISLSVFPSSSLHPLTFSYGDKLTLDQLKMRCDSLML

[3] = target: human IL-12 receptor (IL-12Rβ1 and IL-12Rβ2) on HEK-Blue IL-12 cells (human, UniProt P42701 24-662; Q99665 24-862); test: cell-based or functional assay
[4] = target: human IL-12Rβ1, Acro (BLI analyte) (human, UniProt P42701 24-545); test: BLI (Octet), antibody on AHC tip
[5] = target: T3, human IL-12Rβ2, Acro (BLI analyte) (human, UniProt Q99665 24-622, limits assumed); test: BLI (Octet), antibody on AHC tip
T3 sequence (looked up): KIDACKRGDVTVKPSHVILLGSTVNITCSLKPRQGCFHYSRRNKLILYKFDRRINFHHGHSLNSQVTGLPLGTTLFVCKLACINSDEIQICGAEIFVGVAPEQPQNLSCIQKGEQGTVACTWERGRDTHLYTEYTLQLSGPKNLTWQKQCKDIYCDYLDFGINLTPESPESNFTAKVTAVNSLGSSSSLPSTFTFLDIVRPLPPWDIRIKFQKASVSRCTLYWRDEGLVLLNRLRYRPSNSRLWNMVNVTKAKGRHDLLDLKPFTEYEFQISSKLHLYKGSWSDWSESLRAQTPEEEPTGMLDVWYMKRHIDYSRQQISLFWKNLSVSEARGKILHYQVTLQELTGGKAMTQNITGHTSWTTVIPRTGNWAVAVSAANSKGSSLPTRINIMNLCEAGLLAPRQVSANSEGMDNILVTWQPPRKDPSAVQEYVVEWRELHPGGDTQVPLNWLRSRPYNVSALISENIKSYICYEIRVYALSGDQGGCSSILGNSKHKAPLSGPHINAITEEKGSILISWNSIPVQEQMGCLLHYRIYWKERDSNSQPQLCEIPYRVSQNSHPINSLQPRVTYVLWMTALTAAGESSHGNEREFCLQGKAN

Binder | OD450 nm [1] | FOB [2] | EC50 [3] | Max Absorbance [3] | Kd [4] | Kd [5]
B1 | 0.151 | 1.35 fold | – | – | – | –
B2 | 0.237 | 0.99 fold | – | – | – | –
B3 | – | – | 7e-09 M (implied) | 0.61 | 27.4 nM | 11.8 nM
B4 | – | – | 4.7e-09 M (implied) | 0.59 | 10.6 nM | 8.29 nM
B5 | – | – | 3.1e-09 M (implied) | 0.64 | 5.49 nM | 16.1 nM
B6 | – | – | > 100 nM | 1.28 | 11.3 nM | 2.21 nM
B7 | – | – | 1.5e-10 M (implied) | 0.61 | 8.96 nM | 0.386 nM
B8 | – | – | 2.7e-10 M (implied) | 1.24 | 15.9 nM | 0.321 nM
B9 | – | – | 7.7e-11 M (implied) | 0.6 | 7.26 nM | 0.768 nM

Source: patent publication US20250019450A1 (DIAGONAL THERAPEUTICS, published 2025)
